The target in assay [1] is T1, HLA B*0702 (human).
T1 construct: Class I MHC molecule of the cells from which the associated phosphopeptides were detected; also called HLA-B7
Briefly: MS of peptides eluted from HLA; L/M column: L.

Assay [2] has as its target T2, HLA-A*0201 (human).
T2 construct: also called HLA-A2
Briefly: listed as presented with class I MHC on cancer cells (leukemia or transformed B cells).

Assay [3] addresses T3, HLA-B*0702 (human).
T3 construct: also called HLA-B7
Briefly: HLA-B7 eluate MS; ALL1; 1 means <1 copy/cell.
Text: The mixture was subjected to centrifugation and the resulting supernatant was passed over protein A sepharose pre-loaded with the HLA-A2-specific antibody BB7.2 or HLA-B7-specific antibody ME1. Peptides were eluted from the purified class I MHC molecules with 10% acetic acid.

Non-standard residues stand in square brackets, D forms with d. No end group written: not given here. pT = C[C@@H](OP(=O)(O)O)[C@H](N)C(=O)O; pS = N[C@@H](COP(=O)(O)O)C(=O)O

For the molecule SPA[pS]PKISL [SPAsPKISL], the binding result in assay [1] is reported as “binds”.
Turning to RSE[pS]KDRKL [RSEsKDRKL], the binding result in assay [1] was “binds”.
As for KVA[pS]LLHQV [KVAsLLHQV], the binding result in assay [2] is “binds”.
For the molecule RSG[pS]LERKV (also called C20orf117) [KIAA0889 phosphopeptide RSGsLERKV], the binding result in assay [3] is “binds”.
With SPK[pS]PGLKA [RCSD1 phosphopeptide SPKsPGLKA], the binding result in assay [3] is given as “binds”.
As to YQR[pS]FDEVEGV [YQRsFDEVEGV], the binding result in assay [1] is on record as “binds”.
For the molecule RPW[pS]PAVSA [SKI phosphopeptide RPWsPAVSA], the binding result in assay [3] is “binds”.

B1: KIFsGVFVKV (peptide)
peptide: KIF[pS]GVFVKV
notes: From 60S ribosomal protein L7-like 1, UniProt Q6DKI1
On to B1, for which the binding result in assay [2] is given as “binds”.

B2: MLAEsPSVPRL (peptide)
peptide: MLAE[pS]PSVPRL
notes: From Putative uncharacterized protein, UniProt Q8WUC7
As to B2, in assay [2], the binding result is on record as “binds”.
As to ALD[pS]GASLLHL [ALDsGASLLHL], in assay [2], the binding result is given as “binds”.
With RPA[pT]GGPGVA [phosphopeptide RPAtGGPGVA (no gene name in Table 7; Unknown protein)], the binding result in assay [3] is “binds”.
The same measure, in the same setting: the entry for RPN[pS]PSPTAL [TLK1 phosphopeptide RPNsPSPTAL] is “binds”.
With RRK[pS]QVAEL [RRKsQVAEL], the binding result in assay [1] is “binds”.
Same read-out and setting: in the case of RSG[pS]LERKV [RSGsLERKV] it was “binds”.
Turning to RTY[pS]GPMNKV (From POF1B, UniProt Q8WVV4) [RTYsGPMNKV], the binding result in assay [2] is on record as “binds”.
For RPI[pT]PPRNSA [PPP1CA phosphopeptide RPItPPRNSA], the binding result in assay [3] was “binds”.
TPAQPQRR[pS]L [TPAQPQRRsL]: the binding result in assay [1] was “binds”.
On the same count and under the same terms, in the case of RSL[pS]PLLF [RSLsPLLF] it was “binds”.
For RPA[pS]ARAQPGL [C6orf64 phosphopeptide RPAsARAQPGL], the binding result in assay [3] is listed as “binds”.
The same measure, in the same setting: in the case of RP[pS]SPALYF [TSC22D4 phosphopeptide RPsSPALYF] it was “binds”.
With SPS[pS]PSVRRQL [SPSsPSVRRQL], in assay [1], the binding result is on record as “binds”.
Regarding KVL[pS]TEEMEL (From Protein FAM128B, UniProt Q6NZ67) [KVLsTEEMEL], in assay [2], the binding result was “binds”.

B3: KLFsPSKEAEL (peptide)
peptide: KLF[pS]PSKEAEL
notes: From Protein cramped-like, UniProt Q96RY5
On to B3, for which, in assay [2], the binding result is “binds”.
On the same count and under the same terms, in the case of AMLGSK[pS]PDPYRL (From Protein SON, UniProt P18583) [AMLGSKsPDPYRL] it was “binds”.

B4: YQLsPTKLPSI (peptide)
peptide: YQL[pS]PTKLPSI
notes: From Nibrin/cell cycle regulatory protein p95, UniProt O60934
For B4, the binding result in assay [2] is listed as “binds”.
On the same count and under the same terms, in the case of ALG[pS]RESLATI [ALGsRESLATI] it was “binds”; in that of KMD[pS]FLDMQL [KMDsFLDMQL], “binds”.
With RTE[pS]DSGLKK [RTEsDSGLKK], the binding result in assay [1] is given as “binds”.
For the molecule GGSFGGRSSG[pS]P (From HNRNPA3, UniProt P51991) [GGSFGGRSSGsP], in assay [2], the binding result was “binds”.
In the case of VPR[pS]PKHAHSSSL [VPRsPKHAHSSSL], the binding result in assay [1] was “binds”.
As to KLLQFYP[pS]L [KLLQFYPsL], the binding result in assay [2] was “binds”.
Take KPQTRGK[pT]F (also called Carabin) [TBC1D10C phosphopeptide KPQTRGKtF]: the binding result in assay [3] was “binds”.
Regarding SPSTSRSGG[pS]SRL [SPSTSRSGGsSRL], the binding result in assay [1] was “binds”.

B5: GLLsPARLYAI (peptide)
peptide: GLL[pS]PARLYAI
notes: From Leucine rich PPR-motif containing protein, UniProt P42704
With B5, the binding result in assay [2] was “binds”.
As to SPEKAGRR[pS]SL [SPEKAGRRsSL], the binding result in assay [1] was “binds”.
On to KLMAPDI[pS]L [KLMAPDIsL], for which the binding result in assay [2] is “binds”.
Regarding RSE[pS]KDRKL [IP6K1 phosphopeptide RSEsKDRKL], in assay [3], the binding result is recorded as “binds”.

B6: ILDsGIYRI (peptide)
peptide: ILD[pS]GIYRI
notes: From Hermansky-Pudlak syndrome 5 protein, UniProt Q9UPZ3
As to B6, the binding result in assay [2] is “binds”.
With RPH[pS]PEKAF [C17orf85 phosphopeptide RPHsPEKAF], in assay [3], the binding result is listed as “binds”.
For the molecule RSL[pS]PGGAA [RSLsPGGAA], the binding result in assay [1] is recorded as “binds”.

B7: KAKsPAPGL (peptide)
peptide: KAK[pS]PAPGL
notes: From Nuclear receptor corepressor 2, UniProt Q9Y618
With B7, the binding result in assay [2] is listed as “binds”.
RPV[pS]PGKDI [HIVEP2 phosphopeptide RPVsPGKDI]: in assay [3], the binding result was “binds”.
Regarding RQA[pS]LSISV (From Protein kinase 2D, UniProt A0JLT6) [RQAsLSISV], in assay [2], the binding result is “binds”.

B8: RQIsFKAEV (peptide)
peptide: RQI[pS]FKAEV
notes: From Ubiquitin-conjugating enzyme E2 J1, UniProt Q9Y385
Turning to B8, the binding result in assay [2] is listed as “binds”.

B9: RPR(sLss)PTVTL (peptide)
peptide: RPRSLSSPTVTL
modifications: also: one of Ser4, Ser6, Ser7 phosphorylated
notes: From E3 ubiquitin-protein ligase NEDD4-like, UniProt Q96PU5
For the molecule B9, in assay [2], the binding result is given as “binds”.
In the case of RSL[pS]PGGAA [RBM15 phosphopeptide RSLsPGGAA], the binding result in assay [3] is listed as “binds”.

B10: KMYsEIDIKV (peptide)
peptide: KMY[pS]EIDIKV
notes: From 116 kDa U5 small nuclear ribonucleoprotein component, UniProt Q15029
B10: in assay [2], the binding result was “binds”.
For the molecule RPPPPPD[pT]PP [KLF2 phosphopeptide RPPPPPDtPP], the binding result in assay [3] is reported as “binds”.
As to SPK[pS]PGLKA [SPKsPGLKA], the binding result in assay [1] is on record as “binds”.
With VLMKSPSPAL (also: one of S5 or S7 phosphorylated, From YTHDC2, UniProt Q9H6S0) [VLMK(sPs)PAL], the binding result in assay [2] is on record as “binds”.
For YQR[pS]FDEVEGVF [YQRsFDEVEGVF], the binding result in assay [1] was “binds”.
As to SPR[pS]PGKPM [phosphopeptide SPRsPGKPM (no gene name in Table 7; no database hit)], the binding result in assay [3] was “binds”.
On to SPGLARKR[pS]L [SPGLARKRsL], for which the binding result in assay [1] is “binds”.
On the same count and under the same terms, the entry for TPI[pS]PGRASGM [TPIsPGRASGM] is “binds”.
Take KPR[pS]PDHVL [MACF1 phosphopeptide KPRsPDHVL]: in assay [3], the binding result is recorded as “binds”.
In the case of AVIHQ[pS]LGL (From Protein CNPPD1, UniProt Q9BV87) [AVIHQsLGL], the binding result in assay [2] is “binds”.
As to SPR[pS]PGKPM [SPRsPGKPM], the binding result in assay [1] is on record as “binds”.
Take SPA[pS]PKISL [ATXN2L phosphopeptide SPAsPKISL]: the binding result in assay [3] is given as “binds”.
KLD[pS]PRVTV (From Protein FAM86A, UniProt Q96G04) [KLDsPRVTV]: in assay [2], the binding result is on record as “binds”.
Take SPR[pS]PSTTYL [SPRsPSTTYL]: in assay [1], the binding result is on record as “binds”.
On the same count and under the same terms, in the case of RRS[pS]LDAEIDSL [RRSsLDAEIDSL] it was “binds”.
For DS[pS]EEKFL (From Statherin (saliva), UniProt P02808) [DSsEEKFL], the binding result in assay [2] is on record as “binds”.

B11: RLAsLNAEAL (peptide)
peptide: RLA[pS]LNAEAL
notes: From Bromo adjacent homology domain-containing 1 protein, UniProt Q8TBE0
In the case of B11, the binding result in assay [2] is on record as “binds”.

The record behind these values is patent US20150224182A1 (UNIVERSITY OF VIRGINIA PATENT FOUNDATION, published 2015).
